# Laboratory results published in article PMC7173237.
# Target: West Nile virus (Kunjin subtype, strain MRM61C) core (C) protein, trypsin-cleaved fragment Val23-Arg98 (Kunjin virus (strain MRM61C))
# Test: crystal structure
substance,measurement,value
"West Nile virus (Kunjin subtype, strain MRM61C) core (C) protein, trypsin-cleaved fragment Val23-Arg98 (domain or fragment)",stoichiometry N,4
